Results taken from PMC9054013 (2022).

Tests used:
Test in all cases: ITC
[1] = target: AP2 α-appendage (residues 695 to 938) (UniProt P17427 695-938)
FCHO2-N1+N2 EEK mutant = FCHO2-N1+N2 EEK mutant (human, UniProt Q0JRZ9-1 314-394, E320S | E321S | K326S)
FCHO2-N1+N2 E336A+F339S = FCHO2-N1+N2 E336A+F339S (human, UniProt Q0JRZ9-1 314-394, E336A | F339S)

Chain of AP2 α-appendage (residues 695 to 938) (P17427 695-938): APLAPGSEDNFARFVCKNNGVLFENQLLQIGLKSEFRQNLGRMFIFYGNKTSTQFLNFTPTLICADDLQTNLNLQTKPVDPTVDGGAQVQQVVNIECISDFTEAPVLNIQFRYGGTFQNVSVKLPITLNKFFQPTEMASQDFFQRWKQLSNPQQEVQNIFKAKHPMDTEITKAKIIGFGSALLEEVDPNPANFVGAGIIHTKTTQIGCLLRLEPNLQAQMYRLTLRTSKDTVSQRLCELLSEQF

Binder | Kd [1] | Kd (FCHO2-N1+N2 EEK mutant) | Kd (FCHO2-N1+N2 E336A+F339S)
QSEEQVSKNLFGPPLESAFDHED [FCHO1 C peptide (residues 426 to 448)] | 44 µM | – | –
Cμ2 (μ2 residues 160 to 435) (domain or fragment) GWRREGIKYRRNELFLDVLESVNLLMSPQGQVLSAHVSGRVVMKSYLSGMPECKFGMNDKIVIEKQGKGTADETSKSGKQSIAIDDCTFHQCVRLSKFDSERSISFIPPDGEFELMRYRTTKDIILPFRVIPLVREVGRTKLEVKVVIKSNFKPSLLAQKIEVRIPTPLNTSGVQVICMKGKAKYKASENAIVWKIKRMAGMKESQISAEIELLPTNDKKKWARPPISMNFEVPFAPSGLKVRYLKVFEPKLNYSDHDVIKWVRYIGRSGIYETRC | – | 110 µM | 55 µM
